Experiments:
Test in all cases: cryo-EM structure
Conditions in all cases: remark: other sources report otherwise
[1] = biological target: T1, human Na-K-2Cl cotransporter-1 (hNKCC1), full-length wild type (human), P55011
T1 chain: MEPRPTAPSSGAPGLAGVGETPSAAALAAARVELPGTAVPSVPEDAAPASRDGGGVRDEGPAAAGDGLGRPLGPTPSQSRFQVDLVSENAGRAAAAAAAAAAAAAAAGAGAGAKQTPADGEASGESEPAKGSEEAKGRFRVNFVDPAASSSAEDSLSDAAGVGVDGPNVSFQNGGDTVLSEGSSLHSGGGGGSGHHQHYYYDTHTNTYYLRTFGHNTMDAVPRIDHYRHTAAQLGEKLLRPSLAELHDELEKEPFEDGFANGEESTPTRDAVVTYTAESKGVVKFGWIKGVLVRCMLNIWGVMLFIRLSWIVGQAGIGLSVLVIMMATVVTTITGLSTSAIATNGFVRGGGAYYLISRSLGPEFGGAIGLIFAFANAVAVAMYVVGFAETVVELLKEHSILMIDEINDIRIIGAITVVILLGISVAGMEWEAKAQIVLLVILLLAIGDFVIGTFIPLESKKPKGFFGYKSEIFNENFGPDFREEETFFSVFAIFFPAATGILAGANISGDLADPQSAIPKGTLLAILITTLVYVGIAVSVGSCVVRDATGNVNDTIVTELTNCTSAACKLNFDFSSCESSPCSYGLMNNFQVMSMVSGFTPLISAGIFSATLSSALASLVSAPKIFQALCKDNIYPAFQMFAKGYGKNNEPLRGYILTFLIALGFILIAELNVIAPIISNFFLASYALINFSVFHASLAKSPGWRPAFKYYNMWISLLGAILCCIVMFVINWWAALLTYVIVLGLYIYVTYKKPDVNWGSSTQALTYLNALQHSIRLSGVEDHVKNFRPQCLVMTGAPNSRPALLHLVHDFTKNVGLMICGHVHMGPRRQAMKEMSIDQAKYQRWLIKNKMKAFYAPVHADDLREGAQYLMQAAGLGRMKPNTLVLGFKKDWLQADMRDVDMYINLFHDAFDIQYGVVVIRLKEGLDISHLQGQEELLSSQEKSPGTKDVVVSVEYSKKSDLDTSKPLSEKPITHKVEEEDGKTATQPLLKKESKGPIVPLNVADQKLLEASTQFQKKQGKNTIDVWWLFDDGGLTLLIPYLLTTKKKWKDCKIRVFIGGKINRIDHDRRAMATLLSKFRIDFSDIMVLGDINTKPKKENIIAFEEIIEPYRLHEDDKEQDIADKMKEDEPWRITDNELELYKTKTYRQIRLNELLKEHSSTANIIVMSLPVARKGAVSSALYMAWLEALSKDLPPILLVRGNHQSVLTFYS

[2] = biological target: T1, human Na-K-2Cl cotransporter-1 …
[3] = biological target: T1, human Na-K-2Cl cotransporter-1 …

- stoichiometry N [1]: 2
- stoichiometry N [2]: 2
- stoichiometry N [3]: 2
B1: human Na-K-2Cl cotransporter-1 (hNKCC1), full-length wild type, P55011 1-1212 (natural protein)
chain: T1 chain

Reference: article PMC9616490
